Measurements taken from doi:10.1101/524447 (bioRxiv, 2019).
Non-standard residues stand in square brackets, D forms with d. No end group written: not given here. pY = N[C@@H](Cc1ccc(OP(=O)(O)O)cc1)C(=O)O

What was measured:
[1] = target: T1, Syk tandem SH2 (tSH2) fragment, amino acids 9-264 (UniProt P43405 9-264); assay: thermal shift assay
[2] = target: T1, Syk tandem SH2 (tSH2) fragment, amino …; assay: SPR

Binder: NPD[pY]EPIRKGQRDL[pY]SGLNQR [pITAM peptide from CD3ε chain, doubly phosphorylated]
- Kd [1]: 4.2 ± 0.68 µM
- IC50 [2]: 15 µM
